Reference: patent US20120322725A1 (INDIANA UNIVERSITY RESEARCH AND TECHNOLOGY, published 2012)
Like-named read-outs stand apart in the source and are kept apart here. Bridge positions count the residues as written; N and C are the ends. Square brackets hold non-standard residues; d marks the D form. Ends that are not written are not given here. PLA = 3-phenyllactic acid (2-hydroxy-3-phenylpropanoic acid); Abu(4-SO3H) = N[C@@H](CCS(=O)(=O)O)C(=O)O; PhLac = O=C(O)[C@@H](O)Cc1ccccc1

Key:
[1] = molecular target: T1, glucagon receptor (UniProt P47871 26-477, limits assumed); assay: cell-based or functional assay
T1 sequence (P47871 26-477 limits assumed): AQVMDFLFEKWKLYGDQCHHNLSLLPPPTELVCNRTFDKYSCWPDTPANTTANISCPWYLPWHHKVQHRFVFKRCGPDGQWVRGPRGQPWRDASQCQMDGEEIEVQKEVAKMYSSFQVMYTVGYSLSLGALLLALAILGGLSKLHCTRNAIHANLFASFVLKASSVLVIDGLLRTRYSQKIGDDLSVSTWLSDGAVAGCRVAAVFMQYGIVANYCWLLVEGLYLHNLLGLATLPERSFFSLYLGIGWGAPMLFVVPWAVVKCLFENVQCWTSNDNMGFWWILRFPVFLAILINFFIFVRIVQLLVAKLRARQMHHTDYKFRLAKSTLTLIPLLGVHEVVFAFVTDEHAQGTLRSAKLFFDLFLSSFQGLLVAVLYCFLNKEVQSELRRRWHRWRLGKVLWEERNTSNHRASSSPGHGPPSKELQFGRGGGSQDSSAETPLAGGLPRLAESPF

[2] = molecular target: T2, GLP-1 receptor (UniProt P43220 24-463, limits assumed); assay: cell-based or functional assay
[3] = molecular target: T1, glucagon receptor; assay: cell-based or functional assay; remark: listed apart in the source
[4] = molecular target: T2, GLP-1 receptor; assay: cell-based or functional assay; remark: listed apart in the source
[5] = molecular target: T1, glucagon receptor; assay: cell-based or functional assay; remark: listed apart in the source
[6] = molecular target: T1, glucagon receptor; assay: column IC50(nM) beside the cAMP columns of Table H; taken as receptor binding
[7] = molecular target: T1, glucagon receptor; assay: cell-based or functional assay; remark: listed apart in the source
[8] = molecular target: T1, glucagon receptor; assay: receptor binding, method not described
[9] = molecular target: T1, glucagon receptor; assay: cell-based or functional assay; remark: listed apart in the source
[10] = molecular target: T1, glucagon receptor; assay: receptor binding (named so for the same values in Table I), method not described
[11] = molecular target: T1, glucagon receptor; assay: receptor binding, method not described; remark: listed apart in the source
[12] = molecular target: T1, glucagon receptor; assay: cell-based or functional assay; remark: listed apart in the source
[13] = molecular target: T1, glucagon receptor; assay: cell-based or functional assay; remark: listed apart in the source
[14] = molecular target: T1, glucagon receptor; assay: receptor binding, method not described; remark: listed apart in the source
[15] = molecular target: T1, glucagon receptor; assay: receptor binding, method not described; remark: listed apart in the source
[16] = molecular target: T1, glucagon receptor; assay: cell-based or functional assay; remark: listed apart in the source

B1: [PLA6, D9, K12E16(Lactam), D28]G(6-29) (peptide)
peptide: TSDYSKYLDERRAQDFVQWLMDT
modifications: not fully specified; PLA at position 6, N-terminal to the letters given; lactam between K12 and E16
Glucagon IC50 [1]: 13 nM | GLP-1 EC50 [2]: 21 nM | Glucagon IC50 [3]: 63 nM | GLP-1 EC50 [4]: 177 nM

B2: [hCys^9(SO3H)]Glucagon(aa5-29)-NH2 (peptide)
peptide: TFTSXYSKYLDSRRAQDFVQWLMNT
HELM: PEPTIDE1{T.F.T.S.[O=C([C@H](CCS(=O)(=O)O)N[*:1])[*:2]].Y.S.K.Y.L.D.S.R.R.A.Q.D.F.V.Q.W.L.M.N.T.[am]}$$$$V2.0; N-terminus assumed
SMILES: CSCC[C@H](NC(=O)[C@H](CC(C)C)NC(=O)[C@H](Cc1c[nH]c2ccccc12)NC(=O)[C@H](CCC(N)=O)NC(=O)[C@@H](NC(=O)[C@H](Cc1ccccc1)NC(=O)[C@H](CC(=O)O)NC(=O)[C@H](CCC(N)=O)NC(=O)[C@H](C)NC(=O)[C@H](CCCNC(=N)N)NC(=O)[C@H](CCCNC(=N)N)NC(=O)[C@H](CO)NC(=O)[C@H](CC(=O)O)NC(=O)[C@H](CC(C)C)NC(=O)[C@H](Cc1ccc(O)cc1)NC(=O)[C@H](CCCCN)NC(=O)[C@H](CO)NC(=O)[C@H](Cc1ccc(O)cc1)NC(=O)[C@H](CCS(=O)(=O)O)NC(=O)[C@H](CO)NC(=O)[C@@H](NC(=O)[C@H](Cc1ccccc1)NC(=O)[C@@H](N)[C@@H](C)O)[C@@H](C)O)C(C)C)C(=O)N[C@@H](CC(N)=O)C(=O)N[C@H](C(N)=O)[C@@H](C)O
cAMP IC50 [5]: 98.3 nM | cAMP pA2 [5]: 6.77 | IC50 [6]: 33.9 nM

B3: ANK2 (Bayer peptide) (peptide)
peptide: HSQGTFTSDYARYLDARRAREFIKWLVRGRG
GLP-1 EC50 [4]: 0.28 nM

B4: [PLA6, D9, E16K20(lactam), D28]G(6-29) (peptide)
peptide: {PLA}-TSDYSKYLDERRAKDFVQWLMDT-NH2
modifications: lactam 10-14
Glucagon IC50 [1]: 6 nM | GLP-1 EC50 [2]: 4 nM | Glucagon IC50 [3]: 10 to 30 nM

B5: [Ac-PLA^6, E^9]Glucagon(aa6-29)-NH2 (peptide)
peptide: {Ac-PLA}-TSEYSKYLDSRRAQDFVQWLMNT-NH2
IC50(nM) (cAMP, inhibit 0.8 mM Glucagon) [7]: 38.1 nM

B6: [Glu^9]Glucagon(aa6-29)-NH2 (peptide)
peptide: FTSEYSKYLDSRRAQDFVQWLMNT-NH2
notes: also called [E^9]Glucagon(aa6-29)-NH2; peptide no
IC50 [8]: 36 nM | cAMP IC50 [9]: 97.2 nM | cAMP pA2 [9]: 7.16 | IC50 [10]: 36.4 nM | IC50 [11]: 36.4 nM | cAMP (I/A)50 [12]: 486 | cAMP pA2 [12]: 7.16 | cAMP Inhibition IC50 [13]: 97 nM

B7: [hCys^9(SO3H)]Glucagon(aa4-29)-NH2 (peptide)
peptide: GTFTSXYSKYLDSRRAQDFVQWLMNT
HELM: PEPTIDE1{G.T.F.T.S.[O=C([C@H](CCS(=O)(=O)O)N[*:1])[*:2]].Y.S.K.Y.L.D.S.R.R.A.Q.D.F.V.Q.W.L.M.N.T.[am]}$$$$V2.0; N-terminus assumed
SMILES: CSCC[C@H](NC(=O)[C@H](CC(C)C)NC(=O)[C@H](Cc1c[nH]c2ccccc12)NC(=O)[C@H](CCC(N)=O)NC(=O)[C@@H](NC(=O)[C@H](Cc1ccccc1)NC(=O)[C@H](CC(=O)O)NC(=O)[C@H](CCC(N)=O)NC(=O)[C@H](C)NC(=O)[C@H](CCCNC(=N)N)NC(=O)[C@H](CCCNC(=N)N)NC(=O)[C@H](CO)NC(=O)[C@H](CC(=O)O)NC(=O)[C@H](CC(C)C)NC(=O)[C@H](Cc1ccc(O)cc1)NC(=O)[C@H](CCCCN)NC(=O)[C@H](CO)NC(=O)[C@H](Cc1ccc(O)cc1)NC(=O)[C@H](CCS(=O)(=O)O)NC(=O)[C@H](CO)NC(=O)[C@@H](NC(=O)[C@H](Cc1ccccc1)NC(=O)[C@@H](NC(=O)CN)[C@@H](C)O)[C@@H](C)O)C(C)C)C(=O)N[C@@H](CC(N)=O)C(=O)N[C@H](C(N)=O)[C@@H](C)O
cAMP IC50 [5]: 68.4 nM | cAMP pA2 [5]: 7.22 | IC50 [6]: 41.5 nM

B8: [E9, E16K20(lactam), D28]G(4~29) (peptide)
peptide: GTFTSEYSKYLDERRAKDFVQWLMDT
HELM: PEPTIDE1{G.T.F.T.S.E.Y.S.K.Y.L.D.E.R.R.A.K.D.F.V.Q.W.L.M.D.T.[am]}$PEPTIDE1,PEPTIDE1,13:R3-17:R3$$$V2.0; N-terminus assumed
SMILES: CSCC[C@H](NC(=O)[C@H](CC(C)C)NC(=O)[C@H](Cc1c[nH]c2ccccc12)NC(=O)[C@H](CCC(N)=O)NC(=O)[C@@H](NC(=O)[C@H](Cc1ccccc1)NC(=O)[C@H](CC(=O)O)NC(=O)[C@@H]1CCCCNC(=O)CC[C@H](NC(=O)[C@H](CC(=O)O)NC(=O)[C@H](CC(C)C)NC(=O)[C@H](Cc2ccc(O)cc2)NC(=O)[C@H](CCCCN)NC(=O)[C@H](CO)NC(=O)[C@H](Cc2ccc(O)cc2)NC(=O)[C@H](CCC(=O)O)NC(=O)[C@H](CO)NC(=O)[C@@H](NC(=O)[C@H](Cc2ccccc2)NC(=O)[C@@H](NC(=O)CN)[C@@H](C)O)[C@@H](C)O)C(=O)N[C@@H](CCCNC(=N)N)C(=O)N[C@@H](CCCNC(=N)N)C(=O)N[C@@H](C)C(=O)N1)C(C)C)C(=O)N[C@@H](CC(=O)O)C(=O)N[C@H](C(N)=O)[C@@H](C)O
Glucagon IC50 [3]: 10 to 30 nM | GLP-1 EC50 [4]: 151 nM

B9: [hCys^9(SO3H)]Glucagon(aa2-29)-NH2 (peptide)
peptide: SQGTFTS[Abu(4-SO3H)]YSKYLDSRRAQDFVQWLMNT-NH2
cAMP IC50 [5]: 147 nM | IC50 [6]: 13.2 nM

B10: [PLA^5, E^9]Glucagon(aa5-29)-NH2 (peptide)
peptide: {PLA}-FTSEYSKYLDSRRAQDFVQWLMNT-NH2
IC50(nM) (cAMP, inhibit 0.8 mM Glucagon) [7]: 328 nM

B11: [PLA6, E9]Glucagon(aa6-29)-NH2 (peptide)
peptide: [PhLac]TSEYSKYLDSRRAQDFVQWLMNT-NH2
IC50(nM) (cAMP, inhibit 0.8 mM Glucagon) [7]: 64.8 nM | IC50 [14]: 12.3 nM | IC50 [15]: 12.3 nM

B12: [PLA6, D9]Glucagon(aa6-29)-NH2 (peptide)
peptide: XTSDYSKYLDSRRAQDFVQWLMNT
HELM: PEPTIDE1{[O=C([C@@H](O)Cc1ccccc1)[*:2]].T.S.D.Y.S.K.Y.L.D.S.R.R.A.Q.D.F.V.Q.W.L.M.N.T.[am]}$$$$V2.0; N-terminus assumed
SMILES: CSCC[C@H](NC(=O)[C@H](CC(C)C)NC(=O)[C@H](Cc1c[nH]c2ccccc12)NC(=O)[C@H](CCC(N)=O)NC(=O)[C@@H](NC(=O)[C@H](Cc1ccccc1)NC(=O)[C@H](CC(=O)O)NC(=O)[C@H](CCC(N)=O)NC(=O)[C@H](C)NC(=O)[C@H](CCCNC(=N)N)NC(=O)[C@H](CCCNC(=N)N)NC(=O)[C@H](CO)NC(=O)[C@H](CC(=O)O)NC(=O)[C@H](CC(C)C)NC(=O)[C@H](Cc1ccc(O)cc1)NC(=O)[C@H](CCCCN)NC(=O)[C@H](CO)NC(=O)[C@H](Cc1ccc(O)cc1)NC(=O)[C@H](CC(=O)O)NC(=O)[C@H](CO)NC(=O)[C@@H](NC(=O)[C@@H](O)Cc1ccccc1)[C@@H](C)O)C(C)C)C(=O)N[C@@H](CC(N)=O)C(=O)N[C@H](C(N)=O)[C@@H](C)O
IC50 [15]: 13.8 nM | IC50(nM) (cAMP, inhibit Glucagon) 0.1 nM or 0.2 nM [16]: 6.9 nM

B13: [hCys^9(SO3H)]Glucagon(aa6-29)-NH2 (peptide)
peptide: FTS[Abu(4-SO3H)]YSKYLDSRRAQDFVQWLMNT-NH2
notes: also called [hCys(SO3)9]Glucagon(aa6-29)-NH2
cAMP IC50 [5]: 133 nM | cAMP pA2 [5]: 7.16 | IC50 [6]: 59.1 nM | cAMP IC50 [9]: 133 nM | cAMP pA2 [9]: 7.16 | IC50 [11]: 59.1 nM

B14: [Glu^9]Glucagon(aa4-29)-NH2 (peptide)
peptide: GTFTSEYSKYLDSRRAQDFVQWLMNT-NH2
notes: also called peptide no
cAMP pA2 [12]: 7.05 | cAMP Inhibition IC50 [13]: 128 nM

B15: [PLA6, hCys(SO3)9]Glucagon(aa6-29)-NH2 (peptide)
peptide: [PhLac]TS[Abu(4-SO3H)]YSKYLDSRRAQDFVQWLMNT-NH2
IC50 [15]: 14.2 nM | IC50(nM) (cAMP, inhibit Glucagon) 0.1 nM or 0.2 nM [16]: 40.2 nM
